Measured values reported in the supplement of paper PMC5998384.

Key:
HeLa Kyoto [1] = experiment: solubility change mitosis vs G1/S (difference of NP-40 vs SDS log2 ratios) (log2 ratio difference); higher = more soluble in mitosis
HeLa Kyoto [2] = experiment: melting temperature (median over replicates), in situ; higher = more thermally stable
HeLa Kyoto [3] = experiment: thermal stability score vs G1/S (z-score of summed log2 fold changes over temperatures); higher = more thermally stable than in G1/S
HeLa Kyoto [4] = experiment: solubility in G1/S (NP-40 vs SDS abundance) (log2 ratio); higher = more soluble; details: cell cycle stage: G1/S
[5] = cell cycle stage: early G1 (4.5 h after nocodazole release)
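Throughout, for melting temperature (median over replicates), in situ: HeLa Kyoto cells synchronized by double thymidine or nocodazole block, proteins quantified by TMT10plex mass spectrometry, three independent biological replicates.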
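Throughout, for solubility change mitosis vs G1/S (difference of NP-40 vs SDS log2 ratios): synchronized HeLa Kyoto cells (double thymidine block for G1/S, nocodazole release for mitosis), protein amounts in NP-40 versus SDS lysates quantified by mass spectrometry, three biological replicates.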
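Throughout, for solubility in G1/S (NP-40 vs SDS abundance): HeLa Kyoto cells arrested at G1/S by double thymidine block, proteins quantified by TMT10plex mass spectrometry in mild NP-40 versus SDS extracts, three biological replicates.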
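Throughout, for thermal stability score vs G1/S (z-score of summed log2 fold changes over temperatures): synchronized HeLa Kyoto cells, proteins quantified by TMT10plex mass spectrometry, three biological replicates, mitosis taken 0.5 h after nocodazole release, G1/S directly after double thymidine block.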

| Sequence | solubility change mitosis (log2) (HeLa Kyoto [1]) | melting temperature (HeLa Kyoto [2]; cell cycle stage: G1/S) [°C] | melting temperature (HeLa Kyoto [2]; cell cycle stage: mitosis) [°C] | thermal stability score (HeLa Kyoto [3]; [5]) | thermal stability score (HeLa Kyoto [3]; cell cycle stage: mitosis) | solubility in G1/S (log2) (HeLa Kyoto [4]) |
| --- | --- | --- | --- | --- | --- | --- |
| METQLSNGPTCNNTANGPTTINNNCSSPVDSGNTEDSKTNLIVNYLPQNMTQEELKSLFGSIGEIESCKLVRDKITGQSLGYGFVNYIDPKDAEKAINTLNGLRLQTKTIKVSYARPSSASIRDANLYVSGLPKTMTQKELEQLFSQYGRIITSRILVDQVTGISRGVGFIRFDKRIEAEEAIKGLNGQKPPGATEPITVKFANNPSQKTNQAILSQLYQSPNRRYPGPLAQQAQRFRLDNLLNMAYGVKRFSPMTIDGMTSLAGINIPGHPGTGWCIFVYNLAPDADESILWQMFGPFGAVTNVKVIRDFNTNKCKGFGFVTMTNYDEAAMAIASLNGYRLGDRVLQVSFKTNKTHKA [ELAVL2] | -0.0286 | 52.6 | 52.2 | -0.26 | -1.01 | 0.208 |
| METVISSDSSPAVENEHPQETPESNNSVYTSFMKSHRCYDLIPTSSKLVVFDTSLQVKKAFFALVTNGVRAAPLWDSKKQSFVGMLTITDFINILHRYYKSALVQIYELEEHKIETWREVYLQDSFKPLVCISPNASLFDAVSSLIRNKIHRLPVIDPESGNTLYILTHKRILKFLKLFITEFPKPEFMSKSLEELQIGTYANIAMVRTTTPVYVALGIFVQHRVSALPVVDEKGRVVDIYSKFDVINLAAEKTYNNLDVSVTKALQHRSHYFEGVLKCYLHETLETIINRLVEAEVHRLVVVDENDVVKGIVSLSDILQALVLTGGEKKP [PRKAG1] | -0.127 | 50.7 | 51.2 | 0.779 | 1.52 | 0.164 |
| MEVPPRLSHVPPPLFPSAPATLASRSLSHWRPRPPRQLAPLLPSLAPSSARQGARRAQRHVTAQQPSRLAGGAAIKGGRRRRPDLFRRHFKSSSIQRSAAAAAATRTARQHPPADSSVTMEDMNEYSNIEEFAEGSKINASKNQQDDGKMFIGGLSWDTSKKDLTEYLSRFGEVVDCTIKTDPVTGRSRGFGFVLFKDAASVDKVLELKEHKLDGKLIDPKRAKALKGKEPPKKVFVGGLSPDTSEEQIKEYFGAFGEIENIELPMDTKTNERRGFCFITYTDEEPVKKLLESRYHQIGSGKCEIKVAQPKEVYRQQQQQQKGGRGAAAGGRGGTRGRGRGQGQNWNQGFNNYYDQGYGNYNSAYGGDQNYSGYGGYDYTGYNYGNYGYGQGYADYSGQQSTYGKASRGGGNHQNNYQPY [HNRNPDL] | 0.352 | 54.4 | 53.6 | 0.0293 | -2.51 | -0.122 |
| MEVTGDAGVPESGEIRTLKPCLLRRNYSREQHGVAASCLEDLRSKACDILAIDKSLTPVTLVLAEDGTIVDDDDYFLCLPSNTKFVALASNEKWAYNNSDGGTAWISQESFDVDETDSGAGLKWKNVARQLKEDLSSIILLSEEDLQMLVDAPCSDLAQELRQSCATVQRLQHTLQQVLDQREEVRQSKQLLQLYLQALEKEGSLLSKQEESKAAFGEEVDAVDTGISRETSSDVALASHILTALREKQAPELSLSSQDLELVTKEDPKALAVALNWDIKKTETVQEACERELALRLQQTQSLHSLRSISASKASPPGDLQNPKRARQDPT [DFFA] | 0.0192 | 54.2 | 54.5 | -1.44 | -0.858 | 0.392 |
| MEWGSESAAVRRHRVGVERREGAAAAPPPEREARAQEPLVDGCSGGGRTRKRSPGGSGGASRGAGTGLSEVRAALGLALYLIALRTLVQLSLQQLVLRGAAGHRGEFDALQARDYLEHITSIGPRTTGSPENEILTVHYLLEQIKLIEVQSNSLHKISVDVQRPTGSFSIDFLGGFTSYYDNITNVVVKLEPRDGAQHAVLANCHFDSVANSPGASDDAVSCSVMLEVLRVLSTSSEALHHAVIFLFNGAEENVLQASHGFITQHPWASLIRAFINLEAAGVGGKELVFQTGPENPWLVQAYVSAAKHPFASVVAQEVFQSGIIPSDTDFRIYRDFGNIPGIDLAFIENGYIYHTKYDTADRILTDSIQRAGDNILAVLKHLATSDMLAAASKYRHGNMVFFDVLGLFVIAYPSRIGSIINYMVVMGVVLYLGKKFLQPKHKTGNYKKDFLCGLGITLISWFTSLVTVLIIAVFISLIGQSLSWYNHFYVSVCLYGTATVAKIILIHTLAKRFYYMNASAQYLGEVFFDISLFVHCCFLVTLTYQGLCSAFISAVWVAFPLLTKLCVHKDFKQHGAQGKFIAFYLLGMFIPYLYALYLIWAVFEMFTPILGRSGSEIPPDVVLASILAGCTMILSSYFINFIYLAKSTKKTMLTLTLVCAITFLLVCSGTFFPYSSNPANPKPKRVFLQHMTRTFHDLEGNAVKRDSGIWINGFDYTGISHITPHIPEINDSIRAHCEENAPLCGFPWYLPVHFLIRKNWYLPAPEVSPRNPPHFRLISKEQTPWDSIKLTFEATGPSHMSFYVRAHKGSTLSQWSLGNGTPVTSKGGDYFVFYSHGLQASAWQFWIEVQVSEEHPEGMVTVAIAAHYLSGEDKRSPQLDALKEKFPDWTFPSAWVCTYDLFVF [ERMP1] | -0.18 | 58.8 | 56.7 | -3 | -4.39 | -0.0493 |
| MEWWASSPLRLWLLLFLLPSAQGRQKESGSKWKVFIDQINRSLENYEPCSSQNCSCYHGVIEEDLTPFRGGISRKMMAEVVRRKLGTHYQITKNRLYRENDCMFPSRCSGVEHFILEVIGRLPDMEMVINVRDYPQVPKWMEPAIPVFSFSKTSEYHDIMYPAWTFWEGGPAVWPIYPTGLGRWDLFREDLVRSAAQWPWKKKNSTAYFRGSRTSPERDPLILLSRKNPKLVDAEYTKNQAWKSMKDTLGKPAAKDVHLVDHCKYKYLFNFRGVAASFRFKHLFLCGSLVFHVGDEWLEFFYPQLKPWVHYIPVKTDLSNVQELLQFVKANDDVAQEIAERGSQFIRNHLQMDDITCYWENLLSEYSKFLSYNVTRRKGYDQIIPKMLKTEL [POGLUT1] | -0.0965 | 52.9 | 54 | 2.61 | 3.25 | 0.28 |
